{
  "source": "paper PMC6219635",
  "experiment_in_all_cases": "SDS-PAGE under non-reducing conditions",
  "key": {"[1]": {"biological_target": "FG-IncD ΔC (aa 1-91) (Chlamydia trachomatis)"}, "[2]": {"biological_target": "FG-IncD ΔN (38-146) (Chlamydia trachomatis)"}, "[3]": {"biological_target": "FG-IncD M (FLAG-tagged TM region of IncD) (Chlamydia trachomatis)"}},
  "data": [
    {"substance": "FG-IncD ΔC (aa 1-91) (domain or fragment)", "values": [
      {"measurement": "stoichiometry N", "setting": "[1]", "value": 2}
    ]},
    {"substance": "FG-IncD ΔN (38-146) (domain or fragment)", "values": [
      {"measurement": "stoichiometry N", "setting": "[2]", "value": 2}
    ]},
    {"substance": "FG-IncD M (FLAG-tagged TM region of IncD) (domain or fragment)", "values": [
      {"measurement": "stoichiometry N", "setting": "[3]", "value": 2}
    ]}
  ]
}
